Experiment: soluble on expression in E. coli; label from the status in PepcDB or PDB records

Sequence	soluble on expression in E. coli
MQNGAMKAWLDSSYLAGANQSYIEQLYEDFLTDPGSVDDSWRSIFQQLPTTGVKPDQLHSQTREYFRRLAKDSTRYNSSINDPDIDAKQVKVLQLINAFRFRGHQHANLDPLGLWKQESVPDLDPSYHNLTEADFQNTFNVGSFAIGKETMKLADLYAALKQTYCGSVGAEYMHITNTEEKRWIQQRIESVVGKPTFSDAEKRRFLSELTAAEGLERYLGAKFPGAKRFSLEGGDSLVTMLKEMIRHAGKNGTREVVLGMAHRGRLNVLINVLGKKPEDLFDEFAGKHKEHLGTGDVKYHQGFSSDVETEGGLVHLALAFNPSHLEIVSPVVIGSVRARRDRLDEARSNMVLPITIHGDAAITGQGVVQETLNMSQARGYEVGGTVRIVINNQIGFTTSNPLDARSTQYCTDIAKMVQAPIFHVNADDPEAVAFVTRLALDFRNTFKRDVMIDLVCYRRHGHNEADEPSATQPVMYQKIKKHPTPRKIYADKLIEQNIASLEDATEMVNLYRDALDHGDCVVEEWRPMNLQSFTWSPYLNHEWDEAYPSKVEMKRLQELARRISSAPEAIEMQSRVAKIYSDRALMASGEKPFDWGGAETLAYATLVDEGIPIRLSGEDAGRGTFFHRHAVIHNQKNGSVYVPLSNIHSGQGDFQVWDSVLSEEAVLAFEYGYATAEPRTLTIWEAQFGDFANGAQVVIDQFISSGEQKWGRMCGLVMLLPHGYEGQGPEHSSARLERYLQLCAEQNMQVCIPSTPAQVYHMIRRQALRGMRRPLIVMSPKSLLRHPLATSSLDELANGSFLPAIGEIDELDPKGIKRVVMCSGKVYYDLLEQRRKNGQTDVAIVRIEQLYPFPHQAVQSVLEQYAHVHDFVWCQEEPLNQGAWYCSQHNFREVIPFGASLRYAGRPASASPAVGYLSVHQKQQQALVNDALNVE	not soluble
MQNMLSMHFFSVMASLNAMASMRVIVFLYQLSILGDCSTIDSLRDLMISQIVLAYNCISVHVNMYISTNGSEASIASRMSTLESCLFLITMNKGSASFGKRRFFYRDLA	soluble
MQQLPKLDLKNKVSAQEWQLRVDLAACYRLLQMHGWDDLIHTHISVCIPGTEHILINAFGLAFEEITASNLVKIDIKGNIIDKDCPFEINPAGFTIHSAVHEVRHDDICALHVHTNETIAVASVEEGLLPLSQYSMFALASMSYHDYEGLAVNDDEKLRLQNDLGDKNFMLLRNHGALTMGKTIGDAFMHMYDLTRACQIQLQVMATGMKPIYAPQSIIDGIKAQANIVHDGETGGQKAWPAMLRRVYRNDPTFAE	not soluble
MQQSYNPQNSLTATTSYSEQEIVCICESLFNEGLQTGRTEQLANFIYNLPQCYQVMESVLKAQALVYFTTQNWKMLYKLLECSKFSPHNHTVLQNLWLDAHYKEAAKTKDRELGAVCKYRIRKKNPFPNTIWDGEETNYCFKSKSRNVLRDAYKKCQYPSVEDKRRLAQQTELSIIQVSNWFKNKRQRERAAGQLDRSSARSNDSDDGSSGCESKPPMNIDSPAPPPLPTSFDLQPYYPSPYTFAPHCDFSYIQNL	not soluble
MQRETGSERVDVDMEKPGMISRWYDDKGFGFILPKTGGEEVFLHISAFRGDRRPRQGDQVWFLASQDAQGRLRAERARLDALTIDPPTVRRGAQAPVTRAQARPAPTPPSALQRPLA	not soluble
MQRHERIRFFITEQCRNLDPTYRNYMYPKQILLGDVPLPLLPNSSLTFRVNSAEKICFRIRLSIDDSQEPLNIGIPLSQVESVSIKDHSAKHPEPALLFLLKKGALERFIQVCNPLLGELHTYHGRKRKMLTYLTVILGMDPHLEQPNPVYCRVSLMANKFTFPFGTAKKILLKDLPIMWQEVLDKQYDRRLKTGIHHDRERMAEMDDEAWDWLMSFLNVKWDKCPSGGRWFVRDKDEILQSNEKLHHKMIYWLNQ	not soluble
MQSATDVAEYCKYDGFDGLKRAISLSDEEILNELDIAHLRGRGGAAYPLGKKWRHLYHAKGTTKYIVCNADEGEPGTFKDKVLLSEDPLSVIEGMIIAGYLFSAKAGYIYMRGEYRRIQKTFQEALDNARQAGFLGENILGIEGFNYDITIISGAGAYICGENSALLNSIEGKTGRPRVKPPHLADVGLYLQPTLVNNVESFASVPVILREGGQAFLEMGTADGGGTKLICLSGHIKNRGLYEVNLGTPLEEIIYGEQYGGGSATGRALKFIHFGGQSGPIGAVATLRDCLYSYEDLWAHDLSVGSGAIVVMDDSVNVVDYLVHVAAFFAHESCGKCTPCRLGTTRILELLSKFNRNEATASDLPRLEKMLTHVTRLSACGLGQSVANPMKSALALFPEEFETTAETEIYATSKGGWLEHHHHHH	not soluble
MQSDHKEKIAILVDVQNVYYTCREAYRSNFDYNQFWYVATQEKEVVSAKAYAIASNDPKQRQFHHILRGVGFEVMLKPYIQRRDGSAKGDWDVGITLDAIEIAPDVDRVILVSGDGDFSLLVERIQQRYNKKVTVYGVPRLTSQTLIDCADNFVAIDDDFLL	soluble
MQSTATYGSTISSGTSRTLKITEIGGSNLTSGMSPFGGHAASAIRESRTREKKEMSELNDRLASYIEKVRFLEAQNRKMEKDLNLLRGKWGHDSTSVKVMYETELRSAKDLIADSDKERAQLEDQIKKLVEELNNYRNKLHEAERGADVTRKELDNVLGRLGALEAEIELLKRRISLMEESIGHLKRENHRMIDSLHHARIFQAVEQETLNRIDYQNQVQTLLEECDFIRRIHDSEIHDLLAMASRDTTVENREYFKNELSSAIREIRSEYDHVSNTTRTDIESWYKLKVQEIHTQNSRNCLEQNYAREEVKRLRTTLGDMRGKMADLEGRNLLLEKQIEDLNYQMEEDMRSYEQSLNDKDTSINKLRDESKILMVELQMLIDTKQTLDAEIVIYRKMLDGEENRAGLRQLVEQVVKTTSIHQTKEIESLRVLKGETTSHSSYSRSAKGNIAIQEAEPSGKYIVLENISRRDENIGDWKLRRKIAGKREIVFTFPREFTLRAQKSVKIFARGQGVHSPPDSLVYDLEDSFGTGNDVVTTLYNKEGEDRASHSQRASHT	not soluble
MQSWYLLYCKRGQLQRAQEHLERQAVSCLTPMITLEKMVRGKRTSVSEPLFPNYLFVEFDPEVIHTTTINATRGVSHFVRFGAHPAIVPSSVIHQLSIYKPEGVVDPETPYPGDSVIITEGAFEGLKAIFTEPDGETRSMLLLNLLNKEVKQSVKNTGFRKI	not soluble
MQTETIHNIPYVNSNLTSFIDYLEKHYIDQKIGAVISTVNPEIAFAAIKDRDYFDVLSSSNFILPDGIGVVMMSRLTNNRLQSRIAGYDVFKELLGVANKKKKRIFLYGAKKDVIKGVVSKISSEYPNIKIAGYSDGYVQDRTLVAKQIARANPDMVFVALGYPHQEKFIHNYRHLFPKAVSIGLGGSFDVFSGNVKRAPSWMIRLNLEWFYRLILNPWRWKRMLSIPKYALTVLKEEKNKKTFYPKPEKDHTKQI	not soluble
MQTNLERIKKHIEKLDTFTATPGQGTTRLTYSKEDLDARNYLKQEMAKVGLTVSEDAIGNIYGRLEGESPDLPAVIVGSHFDSVPNGGAFDGPAGVITGLEVASVFHEQQIKPHFPLEIIAMVEEEGSRFGAGLLASRAITGKVTTEMLHEMKDIDGITATDAMAKLGFNANRVHRAIRTKESVKAFIELHIEQGPILENASEDVALVDTVVGLTQIKVTVKGQAGHAGTTPMLDRKDALVSAVEILGQLPELAIQEGGGTVLTVGKLNVYPNGANVIPDKVIFTVDIRAKDEIHVQNTLAKTKEIIQATEKNGITCEIKDMIYQQPTHLSKEIHQALTESADQLGFKYRTMVSGAGHDAMIFASLTEVGLIFVPSHNGISHAPEEWTDYDKLQKGIEVVLKTVKKWTEESANESENKTNSFK	not soluble
MQVEQRTLNTAAHPFQITAYWLDQISDFETAVDYPIMIICPGGGFTYHSGREEAPIATRMMAAGMHTVVLNYQLIVGDQSVYPWALQQLGATIDWITTQASAHHVDCQRIILAGFSAGGHVVATYNGVATQPELRTRYHLDHYQGQHAAIILGYPVIDLTAGFPTTSAARNQITTDARLWAAQRLVTPASKPAFVWQTATDESVPPINSLKYVQAMLQHQVATAYHLFGSGIHGLALANHVTQKPGKDKYLNDQAAIWPQLALRWLQEQGLLAGNYLEHHHHHH	soluble
MQVLHVCSEMFPLLKTGGLADVIGALPAAQIADGVDARVLLPAFPDIRRGVTDAQVVSRRDTFAGHITLLFGHYNGVGIYLIDAPHLYDRPGSPYHDTNLFAYTDNVLRFALLGWVGAEMASGLDPFWRPDVVHAHDWHAGLAPAYLAARGRPAKSVFTVHNLAYQGMFYAHHMNDIQLPWSFFNIHGLEFNGQISFLKAGLYYADHITAVSPTYAREITEPQFAYGMEGLLQQRHREGRLSGVLNGVDEKIWSPETDLLLASRYTRDTLEDKAENKRQLQIAMGLKVDDKVPLFAVVSRLTSQKGLDLVLEALPGLLEQGGQLALLGAGDPVLQEGFLAAAAEYPGQVGVQIGYHEAFSHRIMGGADVILVPSRFEPCGLTQLYGLKYGTLPLVRRTGGLADTVSDCSLENLADGVASGFVFEDSNAWSLLRAIRRAFVLWSRPSLWRFVQRQAMAMDFSWQVAAKSYRELYYRLK	not soluble
MQVLRLMALPLFALSLSVSITGCDQKNDTLQGKQNNMTAFIKKIAASKESEETQRYVGNLNGIEIKLTYYYKGDIVLRQISEHKLLYKTLKANNKEEAQKMLSQVGEAYQGMPGLTERIDYYDSYATEYVDINFTQAKISDLCKLPGSSIDNCSAYYLSMIRSQKLLEESGYHRIN	not soluble
MQVLSEATPMTNGEVYALLRRRRDERNAARHPPFGLQPVLADSHQRAAVATGAAAATAVAPSAPASASAISRAASVMSHNSVGQHSGSKAAPAGAIESAASAAAASTASILASPSSVHLVVLLTEVTMLNYIANHSSLLLESARPTPAGVRVRTCTPRDVYGPTSVYNRVVGTEGRSDAAVGASATAAGSLLDAELVSSCYAKLASHRPGTRGHVRGVEELLEHFEEVGRAQERLYAAGVRRAVQQLWRRRLWVPAEGLYPPPSPPFATTAPSLSNGSALVKAEPVAEEDVDGTAEAVQRLSQDKAARQSGAGETNHDAEGAQPTNASHLVTPLLLEPTPLWGPAARNGGGKGSVDGGAATASMAHSPLSYHVQLQLQQASRSLLSEAEVLQLVVGRPQRALDVYRLLDDVDDRLQYREEAVNAFVEAVTGVFAE	not soluble
MQVQRAITRNLAKANGYFNKTFKPPTVNYTVRGLKAGVAYLQQNQIRFNPILLQENGQAFIQQVIPHELAHILVFQQFGHVLPHGKEWQMMMEQVLGTSAEVYHTFNTQNVAGQQFAYICACQTHLLSIRLHNAILKNKRQYICKQCKQVLYYKDVLANYSNNTKKLEHHHHHH	not soluble
MQYIKIHALDNVAVALADLAEGTEVSVDNQTVTLRQDVARGHKFALTDIAKGANVIKYGLPIGYALADIAAGEHVHAHNTRTNL	soluble
MRAADAPDAPLPEDRRNAPVWFAHDLEAPRCTALFPRLADRRPALVVVGGFLGSGKTTFLNNCIEYHRARERFVAVIQNEVGATGVDARLMGDGAEVLALDEGCVCCSLAGSLAGGIRAITADFTPEVILLETTGLANPLNLLAELDTLRDMVRLDAVVTVVDAANIVPTLRDSDIARDQIRGADIIVCNKCDTVDETGRAALRATLTGLNGRAALHETSFGRIHPSLFMALEGERPPRGLMPAPHGTHATHADEGFAAVRLFFSGTIDEAALAPLLQQCPGAPFRIKGIVRVTDDEAPRLVQCVGARCEVERLDGGFEGTPFLVFIGRNPDETALLEHWAALGATAEPPAPQAEADTQPAQATKSASGGQSSDATRGCHDHHLEHHHHHH	not soluble
MRALGQNPTNAEVLKVLGNPKSDEMNVKVLDFEHFLPMLQTVAKNKDQGTYEDYVEGLRVFDKEGNGTVMGAEIRHVLVTLGEKMTEEEVEMLVAGHEDSNGCINYEELVRMVLNG	soluble

From the DeepSol protein solubility set
